Data as given in patent US9889195B2, “Immunogenic composition and uses thereof” (THE UNIVERSITY OF MELBOURNE, priority 2009, dated 2018).

B1: ovalbumin (protein, UniProt P01012 2-386, looked up)
Ovalbumin: GSIGAASMEFCFDVFKELKVHHANENIFYCPIAIMSALAMVYLGAKDSTRTQINKVVRFDKLPGFGDSIEAQCGTSVNVHSSLRDILNQITKPNDVYSFSLASRLYAEERYPILPEYLQCVKELYRGGLEPINFQTAADQARELINSWVESQTNGIIRNVLQPSSVDSQTAMVLVNAIVFKGLWEKAFKDEDTQAMPFRVTEQESKPVQMMYQIGLFRVASMASEKMKILELPFASGTMSMLVLLPDEVSGLEQLESIINFEKLTEWTSSNVMEERKIKVYLPRMKMEEKYNLTSVLMAMGITDVFSSSANLSGISSAESLKISQAVHAAHAEINEAGREVVGSAEAGVDAASVSEEFRADHPFLFCIKHIATNAVLFFGRCVSP
notes: model protein antigen (Sigma Aldrich)

Assay: Overall electrostatic charge of lipopeptide or protein antigen
Format: physicochemical

| Molecule | overall charge | overall negative charge |
| --- | --- | --- |
| hen egg lysozyme [HEL] | +8 |  |
| B1 |  | 11 |
